Experimental data published in patent publication US20250313612A1 (Adimab, published 2025).

B1: ADI-14550 (antibody, V domains shown)
VH: QVQLVQSGGGVVQPGRSLRLSCAASGFTFSDYAMHWVRQAPGKGLQWVSLISYNGRKKYYADSVKGRFTISRDDSKNTLYLQMNPLRPDDTAVYYCARDGDIVAVPAAIGLDYWGQGTLVTVSS
VL: DIVLTQSPESLAVSLGERATINCNSSQSVLYTSNNKNYLAWYQQKSGQPPKLLIYWASTRESGVPERFSGSGSGTDFTLTISSLQAEDVAVYYCQQYSSPPYTFGQGTKLEIK
B2: ADI-14548 (antibody, V domains shown)
VH: EVQLVESGGGLVQPGGSLRLSCAASGFSFSTSWMSWVRQAPGKGLEWLANIKEDGSKKIYVDSVKGRFSISRDNAKNSLYLQMTSLRAEDTAVYYCARDVWGWELVGWLDPWGQGTLVTVSS
VL: SYELTQPPSVSVAPGKTASITCGGSNIGSRSVHWYQQKPGQAPVLVVYEDHDRPSGIPERFSGSNSGNTATLTISRVEAGDEADYYCQVWDSSRDHVVFGGGTKVTVL
B3: ADI-14544 (antibody, V domains shown)
VH: QVQLVQSGAEVKKPGESLKISCKGAGFGSTNSWIGWVRQMPGKGLEWMGVIFPGDSDTKYSPTFQGQVTISVDKSINTAYLQWSSLKASDTAIYYCARMLASVGLSNFDAWGQGTLVTVSS
VL: QPVLTQPPSVSLAPGKTATITCGGNNIGGKSVHWYQQKPGQAPVLVIDYDSDRPSGIPERFSGSNSGNTATLTINRVEAGDEADYYCQVWDSISDHVLFGGGTKLTVL
B4: ADI-14542 (antibody, V domains shown)
VH: QVQLVQSGAEVKKPGESLKISCKGSGYVFSSYWVAWVRQMPGKGLEWMGIIYPHDSDTRYSPAFQGQVTISADKSINTAYLQWSSLKASDTAMYYCTIILIPAPIRAPDGFDIWGQGTTVTVSS
VL: NFMLTQPHSVSESPGKTVTISCTGSGGTIASNYVQWYQQRPGSVPTTVIYENNERPSGVPDRFSGSIDRSSNSASLTISGLKTEDEADYYCQSYDSSYHVVFGGGTKVTVL
B5: ADI-14543 (antibody, V domains shown)
VH: QVQLVQSGAEVKKPGSSVKVSCKASGDTFSSYAISWVRQAPGQGLEWMGGVLPMLGTANYAQRFRGRVTLTADGSTNTAYMEMSSLRLDDTAVYYCARVAGLGNSYGRYPDLWGQGTLVTVSS
VL: DIVMTQSPSSLSASVGDRVTITCRASQGISSSLAWYQQKPGKAPELLIYAASSLHSGVPSRFRGSGSGTDFTLTISSVQPEDFATYYCQQANSFPYTFGQGTKLEIK
B6: ADI-14545 (antibody, V domains shown)
VH: EVQLVESGGGLVKPGGSLRLSCAASGFTFSNAWMSWVRQAPGKGLEWVGRVKSKSKGGTTHYAEAVKGRFTISRDDSKNTLYLQMQSLKTEDTAVYYCTSHAYNSDWFVTTDYYYYMDVWGKGTTVTVSS
VL: DIVLTQSPSSLSASVGDRVTFTCRASQSISNYLNWYQQKPGKAPKVLIYGASNLLSGVPSRFIGSGSGTDFTLTINSLQPEDFATYYCQQCYSAPITFGQGTRLEIK
B7: ADI-14555 (antibody, V domains shown)
VH: QVQLVQSGGGLVQPGGSLRLSCAASGLTFSSYAMSWVRQAPGKELEWVSSISESGVDTYYADSVKGRFTVSRDNSKSTLYLQMSSLGGDDTAVYYCAKAYCSNKACHGGYFDYWGQGTLVTVSS
VL: ETTLTQSPDTLSLSPGERATLSCRASQSVRNYLAWYRQKPGQAPRLLIYDASNLATGIPARFSGSGSGTDFTLTISSLEPEDFAVYYCHQRSDWPLTFGPGTKVEIK

Molecular target: RSV F protein of subtype B (18537) on recombinant mKate-RSV (Respiratory syncytial virus subtype B …, UniProt P13843 26-574)
Test: cell-based or functional assay

Binder	Neut IC50 (µg/ml) subtype B [µg/mL]
B1	> 10
B2	0.094
B3	> 10
B4	4.3
B5	> 10
B6	0.073
B7	> 10

Molecular target: RSV F protein of subtype A (strain A2) on recombinant mKate-RSV (Respiratory syncytial virus subtype A …, UniProt P03420 26-574)
Test: cell-based or functional assay

Binder	Neut IC50 (µg/ml) subtype A [µg/mL]
B1	2.62
B2	0.034
B3	> 10
B4	0.008
B5	> 10
B6	0.036
B7	> 10
